Publication PMC9811624 (The EMBO Journal, 2022)
Like-named read-outs stand apart in the source and are kept apart here.

Key:
[1] = target: MBP-OsCBL8 (Oryza sativa (rice)) (UniProt Q3HRN9); test: SPR
[2] = target: MBP-OsCRT3 (Oryza sativa (rice)); test: SPR
[3] = target: MBP-OsCRT3 (Oryza sativa (rice)); test: SPR; remark: listed apart in the source
[4] = target: MBP-OsCBL8 (Oryza sativa (rice)) (UniProt Q3HRN9); test: SPR; remark: listed apart in the source
GST-OsCIPK7 = target: T1, GST-OsCIPK7 (Oryza sativa (rice), UniProt Q75GK4 1-447); test: pull-down
T1 sequence: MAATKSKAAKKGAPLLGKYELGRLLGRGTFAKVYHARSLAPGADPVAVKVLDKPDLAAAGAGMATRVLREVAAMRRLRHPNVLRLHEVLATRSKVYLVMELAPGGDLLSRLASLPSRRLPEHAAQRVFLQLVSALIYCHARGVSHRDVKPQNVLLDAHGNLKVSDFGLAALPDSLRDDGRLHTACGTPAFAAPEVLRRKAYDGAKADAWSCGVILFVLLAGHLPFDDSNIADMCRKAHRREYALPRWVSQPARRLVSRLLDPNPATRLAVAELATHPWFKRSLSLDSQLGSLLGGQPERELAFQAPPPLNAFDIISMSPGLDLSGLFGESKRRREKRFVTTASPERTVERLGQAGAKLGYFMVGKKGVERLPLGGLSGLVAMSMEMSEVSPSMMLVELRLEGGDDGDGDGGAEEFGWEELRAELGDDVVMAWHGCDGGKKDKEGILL

Question: Which results are given for GST-OsCIPK7-C (domain or fragment)?
Answer: Kd [1]: 340 nM; Kd [2]: 920 nM; koff [2]: 0.00077 s⁻¹; kon [2]: 684 M⁻¹ s⁻¹; Kd [3]: 6490 nM; koff [3]: 0.00157 s⁻¹; kon [3]: 256 M⁻¹ s⁻¹; Kd [4]: 390 nM

B1: MBP-OsCBL8 (natural protein)
chain: MGCVSSKQFKRAAQHEDPAILAKETTFSVSEVEALFELFKKISHSIFRDGLIHKEEFQLALFRNSNKKNLFANRIFDLFDLKRNGVIDFGEFVRSLSIFHPETPLGDKIAFAFRLYDLRGTGCIEREELHEMVLALLNESDLFLSEEAVEQIVDQTFKQADLNDDGKIDPDEWKTFASKNPALLKNMTLPYLKDITMVFPSFILNSEVCEEEL
Question: Does B1 bind (GST-OsCIPK7)?
Answer: Result: binds

B2: MBP-OsCBL7 (natural protein)
chain: MGCISSKQFKRAAEHEDPAILAKETTFSVSEVEALYELFKKISHSIFKDGLIHKEEFQLALFRNSNKKNLFADRIFDLFDLKRNGVIDFGEFVRSLNIFHPETPLAEKIAFAFRLYDLRGTGYIEREELYEMVLAILNESDLLLSDDAVEQIVDQTFKQADLNSDGKIDPDEWKAFASKNPALLKNMTLPYLKDITMAFPSFVLNSGVDDEEL
Question: Does B2 bind (GST-OsCIPK7)?
Answer: Result: binds
